Experimental data reported in the DeepSol protein solubility set.

Assay: soluble on expression in E. coli; label from the status in PepcDB or PDB records

Sequence | soluble on expression in E. coli
MTKEEFIKQKEQRKTFLVIAEEEGDSITPISLYRRMKGKKKFLLESSQLHQDKGRYSYLGCNPYGEVKSVGTEVERTIYGRAEKLQSNVLQVLEEIIAPSQVDSPFPFCGGAVGYIGYDVIRQYENIGADLHDPLNIPEVHLLLYREFIVYDHLRQKLSFVYVCREDDSADYEEVYERLRVYKEEVLQGEEAEVTEIRSTLSFTSSITEREFCVMVETAKEHIGAGDIFQVVLSQRLQSECIGDPFALYRKLRIANPSPYMFYIDFQDYVVLGSSPESLLSVREDKVMTNPIAGTRPRGKTKEEDTEIEKELLENEKERAEHMMLVDLGRNDIGRVSEIGSVTIDKYMKVEKYSHVMHIVSEVYGTLRKQMSGFDALAYCLPAGTVSGAPKIRAMEIINELENEKRNVYAGAVGYVSFSGNLDMALAIRTMVVKDEKAYVQAGAGIVYDSDPVAEYEETLNKARALLEVMK | not soluble
MKMKDELINLIINEGCIKFGHFVLTSGKESNYYIDIKSLITNPKALRIIAKLIKEKAEELNLNYDKIAGPELGAVPIATALSLETNKPLLIVRKKKKEHGTGKVIEGNVQKGDKVLLVEDVTTTGGSVIRAAKILREHGADVVGIFVVVDREEGAKENIEKEGFKFYPLVLVSELFKAAGISKDQS | soluble
MKRILLSLLAMATLVGCGSKDDNNPTPPQRPDFTKEQQNYLPTKKVKHVTATYVEADYENGSYPSVQYKDFLNPELNQGQKFTVKTMEYFYEYDNAGRITKVTFKREGDSDIVSTLTYSNISVTITSPPPYDGIREPRSIEYGLNSSGNILSLGVYNEKQQLKNSMSAGTFTWENDNLTKISRKVTRNGVVKERGVKFSYNSATNKNKFYLLDHTGDDIRSYQEYFALSIAIIKGAAPKNLPIEATPLEENDSYSSRFERPVSFSYTFDGDEFVKTITEKENKFVPGSLYSYVPNNGNNEIGTYWNELQTLIANIENKTVTNKSYKLISDDGSTRIFEITVPVKVEKDSNGKTINLNVNKVCKFTVSYNNTSATDIRMEATYYADIITNYELNY | not soluble
MLHLPTIETSSAGRRRRKANSEVDSGAEEPTATSSSDDKSDYRLDLKKRLTTFLTSNSQMASSDSGVSGVESTVEHDLSELKASDSPMSHDGADSPRPELDRTDIVVCGECHTSFSLSCFSNFIEHKVSNCGGKLTPSDDCEVTPRNFDRSRRRTFNPAALIRCGRSTSANALLPNYNMDVTTDTNDLGSSSKSLTCCNCKERFGDVWTLLKHSYDIHGLRVCQEAIPESDVSVTSTSSPTSNESMHMSSRYNHNDTSSKIMHQTIKSESTMMNSFCSERLKEIVTRAGEQDQKPLMALRRLMPSEETEEEQVSAFTSTSLLNSRASQPQLPTVSSSAGFQTSGSMPNVWMQPSMLAAMQEYYASIQQMPYPMTNSTAVALLNISNNLQQQQQQQQQLQQQQQNLIAAQPQVATPQPPAPTPLFQSLNRLSTADESSYTPRPASVAIRRRASPEEELTPPRKSMKIEEEDQLIVVDDGELAEPAARKPNNIKKERCNFCNKVFTNRSNLIVHLRSHTGEKPYKCQLCPYACAQSSKLTRHMRTHGQQGKETYHCYICRMPFSVHSTLEKHMRKCVVSTQGRREGGSPPERSIRPTPSALAEATSLLALSAPSISVPPQPQASTVGQNQSQSHQIVLNWLHALNASNSTPTATSKEDMIEADEDMEETEASDLQSHQPLTSESNQIATVAN | not soluble
MTDAALPPLIQQMLQPEFYPHVVEAPVQLYQTHCSYVLLTGPYAYKLKKPVYFGFLDYSTLEKRQHFLQEELRLNQRTAAPLYQQVLAISQAGDRYQFAETEPAAEYVLQMKQFPKGCLFSEQFESGQLDASVMRQLAAVVAEFHTKTWVDDHVRSYGQVAQIRKAFDENYQQTLHYIGGPQTQAQFDTTKAFSDRFFDTKADLFAARLAADKIRECHGDLHLGNLCRWDNQLFLFDCIEFNEPFRFVDTMYDIAFLVMDLDARGRQDLGTAFLNAYAEMSGDWEGLQVLPLYLSRQAYVRAKVTSFLLDDPAIDSDRRQQAFDQAAAYYQLAHAYAQPAQQGELLLLSGLSGSGKSTLGRTIAERQRAIILRSDAVRKHLAGISLLERGGPEIYSPEMSDRTYGRLLYLGLGLAQAGYRVILDAKYDRQAYRGAALTAAQAQQIPIQILHCQASEETLRQRLQARQGDIADATADLLAQQLTAWQDFSEDEQGFVRAIATEKPLTQQLDALGFLEHHHHHH | not soluble
MGSDKIHHHHHHMKRKITPELSSKDWKEFCSRFHFDNDKLPLIRAIYTAMLPLVDAFAYYSIKQDLPGVSLAHYAYGLVTLGNGVDELSELYLNHEQLEEAYIADCLSLMLLSNAYEQFAKAVEEESSLYAIELSFLGDEYPLELLPEIFEHVSPDGIHLTGSNMLKPLKTAALIIKLDSQKRKNIKELCNTCANCKNLSCPSRKAPGPKLPHTYGAMQIFNIRH | not soluble
GPGSPSEENEGRQFIVCYYLADDTVSVFELQVPNSGHVGGKIFARRAVENLQDPTLLKVGNTIRLDGVDYLLKEMDERTKRYLEMGMPNMDESYFRTQEILGIAASYLQQQFSRITDAFRHYASSSTQGLTRENVREMLSDAGVHATDAELTNVMERADGDKDGWVSLADFTEQFMQQLFISNFKPRESQKRWGDTRNGVVVQRG | soluble
MGSDKIHHHHHHMDYWEKADYSWSDDSKRHILTPSSKSRTLFYYIQEIGQFKASRPYYTERAHLPSYLIKFTLNGTGELRYRYHTYSLQRGDLFFIDCRDYQYYQATSEDPWEMDWIHFEGGNSGAFFQEFMKNGSPVFSTNQLPEDNPIHLIIQQLLQLQDLQHAQTDYQSSVLIHQLLNELLLQKYRQDFTYETIPSLVLEMKAYIDQHFKETISLEDLAQLFHLNKYQLNKEFSKYIGLPPIKYQISKKISYSKDLLRYSNQTVKEIAVDVGLENYAYFSRLFKKRTGLTPSQYRKSGF | not soluble
AGKTLYGKLWDIHEVARRDDGSSLIYIDRHILHEVTSPQAFEGLRLAGRPLWRVNANIATPDHNVPTTKAERQGSLLSIADTVSRLQVQTLDENCDDFGIFEFKMNDVRQGIVHVIGPEQGATLPGMTVVCGDSHTSTHGAFGALAHGIGTSEVEHVLATQCLVTQKMKN | not soluble
MYCIGCGAKIQTEAKNALGFLPAGALKKKIAERDQMEAVQAGDEGSEASIKTEDLYCQRCFRLRHYNEIAPTSLTDADFLRLLKEIGQHDALIVNVVDIFDFNGSLIPNLHKLTGGNDLLMVANKRDVLPKSLKVGKLTAWLREQAASRSLKPKDILVTSAQNKDDVAELMEAIEYYRRGRDVYVVGVTNVGKSTLINAIIKSASGSEDVITTSRFPGTTLDKIEIPLDEDSALIDTPGIIHRGQIAHYLEPEDLKYVSPRKEIKPKTYQLDPEQTLFFGGLARFDFISGERQGMTAYFDNEINVHRTKLEGATEFYEKHKGELLAPALVGAKLVRREFKITDKSDIVFSGLGWVRVPQKAVVAAWVPEGVDVVVRKALIGLEHHHHHH | soluble
MRPGLSAKRLVVKVGSAVLTGERGLDLEAMAEIARQVAALREEGREVVLVSSGAVAAGMRRLGLKERPKDMPKKQALAALGQPLLMAFWQEAFAPFGLPVAQVLLTAEDLSSRSRYLNAKATLRALLDLGAIPVINENDTVAFEEIRFGDNDQLSARVAALVEAGLLALLSDVDALYEEDPKKNPQARPIPEVESVEAVLAHAGEENPLGSGGMKSKLLAARIAGRVGIPTLLLPGKRPGVLLQALSGAPLGTYFHARRRYRGEKAWLFGLLRPKGELVLDRGAVRALKERGASLLPAGVKEVRGRFSRGEAVRLLSEEGEEVGVGLANYASEEIARIKGRRSAEIEAVLGYRYTEEVVHRDHLALKEEA | soluble
MGSDKIHHHHHHASPKKVAPEKKGVETINRATAEAHIGFLACDELEGREAGWKGGRIAGNYIISCLKQMGIKPLDGDYIQPFDVYHAERQVKGKRWQVHPDSIAELKKVVYQKLALRNILGKIEGKNPNEIVIIGAHYDHIGYDPMLEGDQIYNGADDNASGVQAVLQVARAFLATGEQPERTVIFAFWDGEEKGLLGSRYFAMNYPDIKKVKGYLNYDMIGRNNREDQPDYFVYFYTAAHQAFGDWLKKDIEDYRLQLSPDYRAWDNPVGGSDNGTFAKLGIPIIWYHTDAHPDYHLPGDETQKINWLKIVDITKASFLAMWKLANEKKY | not soluble
